Data on one substance can be found in PMC3392545.

In the experiment the target is human STING C-terminal domain (CTD) containing residues 155 to 341 (human) (UniProt Q86WV6). Kind of experiment: SEC. On the technique in general: Size exclusion chromatography separates by hydrodynamic size, large species first.

With “human STING C-terminal domain (CTD) containing residues 155 to 341 (from UniProt Q86WV6 155-341) (domain or fragment)”, the stoichiometry N – broadly, a count of units in the complex or per binding partner – came to 2.
